# Measured values: patent publication US20030044814
# Substitutions are numbered along the chain they refer to.
# B1: PRC17 (wild type) (protein)
# chain: MDVVEVAGSWWAQEREDIIMKYEKGHRAGLPEDKGPKPFRSYNNNVDHLGIVHETELPPLTAREAKQIRREISRKSKWVDMLGDWEKYKSSRKLIDRAYKGMPMNIRGPMWSVLLNIEEMKLKNPGRYQIMKEKGKRSSEHIQRIDRDVSGTLRKHIFFRDRYGTKQRELLHILLAYEEYNPEVGYCRDLSHIAALFLLYLPEEDAFWALVQLLASERHSLQGFHSPNGGTVQGLQDQQEHVVATSQPKTMGHQDKKDLCGQCSPLGCLIRILIDGISLGLTLRLWDVYLVEGEQALMPITRIAFKVQQKRLTKTSRCGPWARFCNRFVDTWARDEDTVLKHLRASMKKLTRKQGDLPPPAKPEQGSSASRPVPASRGGKTLCKGDRQAPPGPPARFPRPIWSASPPRAPRSSTPCPGGAVREDTYPVGTQGVPSPALAQGGPQGSWRFLQWNSMPRLPTDLDVEGPWFRHYDFRQSCWVRAISQEDQLAPCWQAEHPAERVRSAFAAPSTDSDQGTPFRARDEQPCAPTSGPCLCGLHLESSQFPPGF
# B2: mutant form PRC17 (Arg107 and Asp148 substituted by alanines) (protein)
# chain: B1 chain with R107A, D148A
# Biological target: Rab5 (recombinant, purified from E. coli)
protein,measurement,value
B1,GTP hydrolysis assay (percentage of non-hydrolysed [gamma-32P]GTP remaining bound to filters),Addition of wild type PRC17 resulted in a 30% reduction of GTP-bound Rab5
B2,GTP hydrolysis assay (percentage of non-hydrolysed [gamma-32P]GTP remaining bound to filters),addition of the mutant form PRC17 had no effect on Rab5 GTP-hydrolysis
